Measurements published in patent publication US20180179274A1 (INSTITUTE FOR RESEARCH IN BIOMEDICINE, published 2018).

Molecular target: T1, RIFIN PF3D7_1400600 (Plasmodium falciparum)
T1 construct: A-type RIFIN; on transfected CHO cells, and native from 3D7-MGD21^+ IEs in the immunoprecipitation
T1 chain: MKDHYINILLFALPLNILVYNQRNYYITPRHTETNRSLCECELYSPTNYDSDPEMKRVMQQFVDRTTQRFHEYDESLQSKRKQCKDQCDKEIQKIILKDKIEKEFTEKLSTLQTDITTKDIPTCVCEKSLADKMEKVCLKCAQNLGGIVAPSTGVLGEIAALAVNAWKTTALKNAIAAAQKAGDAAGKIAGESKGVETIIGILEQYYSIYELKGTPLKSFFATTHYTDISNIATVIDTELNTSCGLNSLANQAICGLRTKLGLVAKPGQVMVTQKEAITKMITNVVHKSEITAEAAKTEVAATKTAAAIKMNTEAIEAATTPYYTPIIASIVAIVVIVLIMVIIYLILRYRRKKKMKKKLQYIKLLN
Assay: immunoprecipitation and LC-MS

B1: MGD21 (antibody)
VH: EVQLVETGPGLMKTSGTLSLTCAVSGDYVNTNRRWSWVRQAPGKGLEWIGEVHQSGRTNYNPSLKSRVTISVDKSKNQFSLKVDSVTAADTAVYYCARASPLKSQRDTDLPRPSISAEPGTVIPLGSHVTFVCRGPVGVQTFRLERERNYLYSDTEDVSQTSPSESEARFRIDSVNAGNAGLFRCIYYKSRKWSEQSDYLELVVKGEDVTWALSQSQDDPRACPQGELPISTDIYYVDVWGNGTTVTVSS
VL: AIRMTQSPSSLSASPGDKVSITCRASQHINDSLAWFQQRPGKAPKLLIYGASNLHSGVPSRFSGTGSGTDFTLTITGLQSEDFATYFCQQCNCFPPDFGQGTRLEIK
notes: Donor D; LAIR-1 insert in CDRH3; variable regions only; also called MGD21 ANTIBODY; mAb MGD21
B1 was tested, and the “log2 fold change (MGD21 immunoprecipitates of 3D7-MGD21^+ against 3D7-MGD21^- IEs)” value was 2 log2 fold.
